To fix the notation:
B1: TPR 5TU (parent)
chain: GGAUCUUCUCGAUCUAACAAAAAAGACAAAUCUGCCACAAAGCUUGAGAGCAUCUUCGGAUGCAGAGGCGGCAGCCUUCGGUGGCGCGAUAGCGCCAACGUUCUCAACUAUGACACGCAAAACGCGUGCUCCGUUGAAUGGAGUUUAUCAUG

Fewer inactive variants are shown than the library holds.

This data set covers variants of B1. Put plainly: polymerase ribozyme fitness, log enrichment relative to wild type (log ratio); higher = more active; in vitro selection for triplet polymerase activity. In a few lines: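 Mutant libraries of each subunit of a heterodimeric triplet polymerase ribozyme were built by PCR and transcribed. Each library went through one round of in vitro selection in triplicate: annealing with biotinylated primer, partner subunit and triplets, frozen incubation at −7 °C, gel excision of extended constructs, streptavidin-bead capture and RT-PCR. Input and output libraries were Illumina-sequenced; only genotypes with ≥10 input reads and ≥1 read per output were kept. Fitness is log2(genotype enrichment/wild-type enrichment), using inverse-variance-weighted replicate averages.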
Regarding GGAUCUUCUCGAUCUCACAAAAAAGACAAAUCUGCCACAAAGCUUGAGAGCAUCUUCGGAUGCAGAGGCGGCAGCCUUCGGUGGCGCGAUAGCGCCAACGUUCUCAACUAUGACACGCACAACGCGUGCUCCGUUGAAUAGAGUUUAUCAUG, the “polymerase ribozyme fitness (log ratio)” value was -3.75. To GGAUCUUCUCGAUCUCACAAAAAUGACAAAUCUGCCACAAAGCUUGAGAGCAUCUUUGGAUGCAGAGGCGGCAGCCUUCGGUGGCGCGAUAGCGCCAACGUUCUCAACUAUGACACGCAAAACGCGUGCUCCGUUGAAUGGAGUUUAUCAUG belongs -2.44; to GGAUCUUCUCGAUCUCACAAAAAAGACAAAUCUGCCACAAAGCUUGAGAGCAUCUUCCGAUGCAGAGGCGGCAGCCUUCGGUUGCGCGAUAGCGCCAACGUUCUCAACUAUGACACGCCAAACGCGUGCUCCGUUGAAUGGAGUUUAUCAUG, -1.98; to GGAUCUUCUCGAUCUCACAAAAAAGACAAAUCUGGCACAAAGCUUGAGAGCAUCUUCGGAUGCAGCGGCGACAGCCUUCGGCGGCGAGAUAGCGCCAACGUUCUCAACUAUGACACGCAAAACGCGUGCUCCGUUGAAUGGAGUUUAUCAUG, not above -4.2. In the case of GGAUCUUCUCGAUCUCACAAAAAAGACAAAUCUGCCACACAGCUUGAGAGCAUCUUCGGAUGCAGAGGCGGCAGCCUUCAGUGGCGCGAUAUCGCCAACGUUCUCAACUAUGGCACGCAAAACGCGUGCUCCGUCGAAUAGAGUUUAUCAUG, the “polymerase ribozyme fitness (log ratio)” value is not above -4.2.

Consider GGAUCUUCUCGAUCUCACAAAAAAGACAAAUCUGCCACAAAGCUUGAAAGUAUCUUCGGAUGCAGAGGCGGCAGCCUUCGGUGGCGCGAUAGCGCGAACGUUCUCAACUAUGACACGCAAAACGCGUGCUCCGUUGAAUGGAGUUUAUCAUG, for which the “polymerase ribozyme fitness (log ratio)” value is -3.07. With GGAUCUUCUCGAUCUCACAAAAAAGACAAAUCUGCCACAAAGCUUGAGAGCAUCUUCGGAUGCAGAGGCGGCAGCCUUCGGUGGCGUGAUAGCGCCAACGUUCUCAACUAUGACACGUAAAACGCGUGCUCCGUUGAAUGGAGUUUAUCAUG, the “polymerase ribozyme fitness (log ratio)” value is -2.27. The value for GGAUCUUCUCGAUCUCACAAAAAAGACAAAUCUGCCACAAAGCUUGAGAGCAUCUUCGGUUGCAGCGGCGGCAGCUUCCGGUGGCGCGAUAGAGCCAACGUUCUCAACUAUGACACGCAAAACGCGUGCUCCGUUGAAUGGAGUUUAUCAUG was not above -4.2. On to GGAUCUUCUCGAUCUCACAAAAAAGACAAAUCUGCCAAAAAGCUUGAGAGCAUCUUCGGAUGCAGAGGCGGCAGCCUUCGGUGGCGCGAUAGCGCCAACGUUCUCAACUAUGACACGCAAAACGCGUGCUCCGUUGAAUGGAGUUUAUCAUG, for which the “polymerase ribozyme fitness (log ratio)” value is -1.34.

GGAUCUUCUCGAUCUCACAAAAAAGACAAAUCUGCCACAAAGCUUGAGAGCAUUUUCGGAUGCAGAGGCGGCAGCCUUCGGUGGAGCGAUAGCGCCAACGUUCUCAACUAUGACACGCAAAACGCGUGCUCCGUUGAAUGGAGUUUAUCAUG: the “polymerase ribozyme fitness (log ratio)” value is -3.31. For the variant GGAUCUUCUCGAUCUCACAAAUAAGCCAAAUCUGCCACAAUGCUUGAGAGCGUCUUUCGAUGCAGAGUCGGCAGCCUUCGGUGGCGCGAUCGCGGCAACGUUCUCAACUAUGACACGCAAAACGCGUGCUCCGUUGAACAGAGUUUAUCAUG, the “polymerase ribozyme fitness (log ratio)” value is not above -4.2. Turning to GGAUCUUCUCGAUCUCACAAUAAAGACAAAUCUGCCACAAAGCUUGAGAGCAUCUUCGAAUGCAGAGGCGGCAGCCUUCGGUGGCGCGAUAGCACCAGCGUUCUCAACUAUGACACGCAAAACGCGUGCUCCGUUGAAUGGAGUUUAUCAUG, the “polymerase ribozyme fitness (log ratio)” value is -2.66. Take GGAUCUUCUCGAUCUCACAAAAAAGACAAAUCUGCCAAAAAGCUUGAGAGCAUCUUCGGAUGCAGAGGCGGCAGCUUUCGGUGGCGCGAUAGCGCCAACGUUCUCAACUAUGACACGCAAAACGCGUGCUCCGUUGAAUGGAGUUUAUCAUG: the “polymerase ribozyme fitness (log ratio)” value was -2.07. With GGAUCUUCUCGAUCUCACAAAAAAGACAAAUCUGCCACAAAGCUUGAGAGCAUCUUCGGAUGCAGAGGCGGCAGAAUUCGGUGGCGCGAUAGCGCCAACGUUCUCAACUAUGACACGCAAAACGGGUGCUCCGUUGAAUGGAGUUUAUCAUG, the “polymerase ribozyme fitness (log ratio)” value was not above -4.2. As to GGAUCUUCUCGAUCUCACAAAUAAGACAAAUCUGCCACAAAGCUUGAGAGCAUCUUCGGAUGCAGAGGCGGCAGCCUUCGGUGGCGCGAUAGCGCCUACGUUCUCAACUAUGAAACGCAAAACGCGUGCUCCGUGGAAUGGAGUUUAUCAUG, the “polymerase ribozyme fitness (log ratio)” value is not above -4.2. For GGAUCUUCUCGAUCUCACAAAAAUGACAAAUCUGCCACAAAGCUUGAGAGCAUCUUCAGAUGCAGAGGCGGCAGCCUUCGGUGGCGCGAUAUCGCCAACGUUCUCAACUAUGACACGCAAAACGCGUGCUCCGUUGAAUGGAGUUUAUCAUG, the “polymerase ribozyme fitness (log ratio)” value was -2.2. The value for GGAUCUUCUCGAUCUCACAAAAAAGACAAAUCUGCCACAAAGCUUGCGAGCAUCAUCGGAUGCAGAGGCGGCAGCCUUCGGUGGCGCGAUAGCGCCAACGUUCUCAACUAUGACACGCAAAACGCGUGCUCCGUUGAAUGGAGUUUAUCAUG was -2.23. On to GGAUCUUCUCGAUCUCACAAAAAAGACAAAUCUGCCACAAAGCUUGAGAGCAUCUUCUGAUGCAGAGGCGGCAGCCUUCGGUGGCGCGAUAGCGCCAACGGUCUAAACUAUGACACGCAAAACGCGUGCUCCGUUGAAUGGAGGUUAUCAUG, for which the “polymerase ribozyme fitness (log ratio)” value was not above -4.2.

Consider GGAUCUUCUCGAUCUCACAAAAAAGACAAAUCUGCCACAAAGCUUGAGAACAUCUUCGGAUGCGGAGGCGGCAGACUUCGGUCGCGCGAUAGCGCCAACGUUCUCAACUAUGACACGCAAAACGCGUGCUACGUUGAAUGGAGUUUAUCAUG, for which the “polymerase ribozyme fitness (log ratio)” value was not above -4.2. Consider GGAUCUUCUCGAUCUCACAAAGAAGACAAAUCUGCCACAAAGCUUGAGAGCAACUUCGGAUGCAGAGGCGGCAGCCUUCGGUGGCGCGAUAUCGCCAACGUUCUCAACUAUGACACGCAAAACGCGUGCUCCGUUGAAUGGAGUUUAUCAUG, for which the “polymerase ribozyme fitness (log ratio)” value was -2.34. As for GGAUCUUCUCGAUCUCACAAACAAGACAAAUCUGCCACAAAGCUUGAGAGCAUCUUCGGAUGCAGAGGCGGCAGCCUUCGGGGGUGCGAUAGCGCCACCGUUCUCAACUAUGACACGCAAAACGCGUGCUCCGUUUAAUGGAGUUUAUCAUG, the “polymerase ribozyme fitness (log ratio)” value was not above -4.2. Consider GGAUCUUCUCGAUCUCACAAAAAAGACAAAUCUGCCCCCAAGCUUGAGAGCAUCUUCGGAUGCAGAGGCGGCAGCCUUCGGUGGUGCGAUAGCGCCAACGUUCUCAACUAUGACACGCAAAACGCGUGCUCCGUUGAAUGGAGUUUAUCAUG, for which the “polymerase ribozyme fitness (log ratio)” value is not above -4.2. Regarding GGAUCUUCUCGAUCUCACAAAAAAGGCAAAUCUGCCACAAAGCUUGAGAGCAUCUUCGGAUGCAGAGGCGGCAGCCUUCGGUGGCUCGAUAGCGCCAACGUUCUCAACUAUGACACGCAAAACGCGUGCUCCGUUGAAUGGAGUUUAUCAUG, the “polymerase ribozyme fitness (log ratio)” value was not above -4.2. In the case of GGAUCUUCUCGAUCUCACAAAAAAGACAAAUCUGCCACAAAGCUUGAGAGCAUCUUCGGAUGCAGAGGCGGCAGCCUUCGGUGGCGCGAUAGCGCGAACGUUCUCAACUAUGACACGCAAAACGCGUGCUCCGUUGAAUUGAGUUUAUCAUG, the “polymerase ribozyme fitness (log ratio)” value was not above -4.2. On to GGAUCUUCUCGAUCUCACAAAAAAGACAAAUCUGCCACAAAGCUUGAGAGCUUCUUCGGAUGCAGAGGCGGCAGCCUUCGGUGGCGCGAUAGCGCCAACGUUCUCAACUAUGACACGCAAAACGCGUGCUCCGUUGAAUGGAGUUUAUCAUG, for which the “polymerase ribozyme fitness (log ratio)” value is -2.03. In the case of GGAUCUUCUCGAUCUCACAAAAAAGACAAAUCUGCCACAAAGCUUGAGAGCAUCUUCGGAUGCAGAGGCGGCAGCCUUCGGUGGAGCGAUAGCGCCAACGUUCUCAACUAUGACACGCAAAACGCGUGCUCCGUUGAAUGGAGUUUAUCAUG, the “polymerase ribozyme fitness (log ratio)” value is -2.36.

GGAUCUUCUCGAUCUCACAAAAAAGACAAAUCUGCCACAAAGCUUGAGAACAUCUUCGGAUGCAGAGGCGGCAGCCUUCGGUGGCGCGAUAGCGCAAACGUUCUCAACUAUGACACGCAAAACGCGUGCUCCGUUGAAUGGAGUUUAUCAUG: the “polymerase ribozyme fitness (log ratio)” value was -3.37.

GGAUCUUCUCGAUCUCACAAAAAAGACAAAUAUGCCACAAUGCUUGAGAGCAUCUUCGGGUGCAGAGGCGGCAUCCUUCGGUGGCGCGAUAGGGCCAACGUUCUCAACUAUGACACGCAAAACGCGUGCUCCGUUGAAUGGAGUUUUUCAUG: the “polymerase ribozyme fitness (log ratio)” value is not above -4.2.

In the case of GGAUCUUCUCGAUCUCACAAAAAAGACAAAUCUGCCACAAAGCUUGAGAGCAUCUUCGGAUGCAGAGGCGGCAGCCUUCGGUGGCGCGAUAGCGCCAACGUUCUCAAUUAUGACACGCAAAACGCGUGCUCCGUUGAAUGGAGUUUUUCAUG, the “polymerase ribozyme fitness (log ratio)” value was -3.42. Take GGAUCUUCUCGAUCUCACAAAAAAGACAAAUCUGCCACAAAGCUUGAGAGCAUCUUCGGAUGCAGAGGCGGCAGCCUUCGGUGGCGCGAUAGCGCCAACGUUCUCAACUAUGACACGCAAGACGCGUGCUCCGUUGAAUGGAGUUUAUCAUG: the “polymerase ribozyme fitness (log ratio)” value is -1.15.

GGAUCUUCUCGAUCUCACAAAAAAGACAAAUCUGCCACAAAGCUUGAGAGCAUCUUCGGAUGCAGAGGCGGCAGCCUUCGGUGGCGCGAUAGAGCCAACGUUCUCAACUAUGACACGCAAAACGCGUGCUCCGUUGAAUGGAGUUUAUCAUG: the “polymerase ribozyme fitness (log ratio)” value is -3.94. As for GGAUCUUCUCGAUCUCACAAAAAAGAGAAAUCUGCCACAAAGCUUGAGGACAUCUUCGGCUGCAGAGGCGGCAGCCUUAGGUGGCGCGAUUGCGCCAACGUUCUGAACUAUGACACGCAAAACGCGUGCUCCGUUGAAUGGAGUUUAUCAUG, the “polymerase ribozyme fitness (log ratio)” value is not above -4.2. GGAUCUUCUCGAUCUCACAAAAAAGACAAAUCUGCCACAAAGCUUGAGAGCAUCUUCGGAUGCAGAGGCGGCAGCCUUCGGUGGCCCGAUAGCGCCAACGUUCUCAACUAUGACACGCAAAACGCGUGCUCCGUUGAAUGGAGUUUAUCAUG: the “polymerase ribozyme fitness (log ratio)” value is -3.43. In the case of GGAUCUUCUCGAUCUCACAAACAAGACAAAUCUGCCACAAAGCUUGAGAGCAUUUUCGGAUGCAGAGGCGGCAGCCUUCGGUGGCGCGAUAGCGCCAACGUUCUCAACUAUGUCACGCAAAACGCGUGCUCCGUUGAAUGGAGUUUAUCAUG, the “polymerase ribozyme fitness (log ratio)” value was -4.06.

Regarding GGAUCUUCUCGAUCUCACAAAAAAGACAAAUCUGCCACAAAGAUUGAGAGCCUCUUCGGAUGCAGAGGCAGCAGCCUUCGGUGGCGCGAUAGCGCCAACGUUCUCAACUAUGACACGCAAAACGCGUGCUUCGUUGAAUGGAGUUUAUCAUG, the “polymerase ribozyme fitness (log ratio)” value was not above -4.2. To GGAUCUUCUCGAUCUCACAAAAAAGACAAUUCUGCCACAAAGCUUGAGAGCAUCUUCGGAUGCAGAGCCGGCAGCCUUGGGUGGCGCGAUAGCGCCAACGUUCUCAACUAUGACACGCAAAACGCGUGCUCCGUUGAAUGGAGUUUAUCAUG belongs not above -4.2; to GGAUCUUCUCGAUCUCACAAAAAAGACAAUUCUGCCACAAAGCUUGAGAGCAUCUUCUGAUGCAGUGGCGGCGGCCUUCGGUGGCGCGAUAGCGCCAACGUUCUCAACUAUGACACGCAAAACGCGUGCUCCGUUGAAUGGAGUUUAUCAUG, not above -4.2. Take GGAUCUUCUCGAUCUCACAAAAAAGACAAAUAUGCCACAAAGCUUGAGUGCAUCUUCGGAUGCAGAGGCGGCAGCCUUCGGUGGCGCGAUAGCGCCAACGUGCUCAACUAUGACACGCAAAACGCGUGGUCCGUUGAAUGGAGUUUAUCAUG: the “polymerase ribozyme fitness (log ratio)” value is not above -4.2.

The values are drawn from the RNAGym collection of RNA variant scans (doi:10.1073/pnas.2313332121).
